In US7199217B2, “Amidated glucagon-like peptide-1” (Eli Lilly and Company, priority 2000, dated 2007):

Tests used:
[1] = Aggregation time in solution, turbidity at 350 nm while stirred; format: physicochemical; conditions: 37° C.; 0.3 mg/mL in 10 mM citrate, 10 mM phosphate, 150 mM NaCl, pH 7.4 to 7.5, stirred
Method: The peptides in solution were stirred at elevated temperature in a suitable buffer while recording turbidity at 350 nm as a function of time. Time to the onset of aggregation was measured to quantify the potential of each GLP-1 molecule to aggregate under these stressed conditions.
In general, the peptides in solution were stirred at elevated temperature in a suitable buffer while recording turbidity at 350 nm as a function of time. Time to the onset of aggregation was measured to quantify the potential of a given GLP molecule to aggregate under these stressed conditions.
The GLP-1 peptides were first dissolved under alkaline conditions (pH 10.5) for 30 minutes to dissolve any pre-aggregated material. The solution was then adjusted to pH 7.4 and filtered. Specifically, 4 mg of a lyophilized GLP-1 peptide was dissolved in 3 mL of 10 mM phosphate/10 mM citrate. The pH was adjusted to 10.0–10.5 and held for 30 minutes. The solution was adjusted with HCl to pH 7.4 and filtered through a suitable filter, for example a Millex® GV syringe filter (Millipore Corporation, Bedford, Mass.). This solution was then diluted to a final sample containing 0.3 mg/mL protein in 10 mM citrate, 10 mM phosphate, 150 mM NaCl, and adjusted to pH 7.4 to 7.5. […] Every five minutes the turbidity of the solution was measured at 350 nm on an AVIV Model 14DS UV-VIS spectrophotometer (Lakewood, N.J.). […]

[2] = molecular target: T1, human GLP-1 receptor (Homo sapiens, UniProt P43220); experiment: In vitro activity, HEK-293 Aurora CRE-BLAM cells, β-lactamase reporter; format: cell-based; conditions: comparison with the acid form; test not specified
T1 construct: expressed in transfected cells; host or cells: HEK-293 Aurora CRE-BLAM cells
T1 sequence (P43220 24-463): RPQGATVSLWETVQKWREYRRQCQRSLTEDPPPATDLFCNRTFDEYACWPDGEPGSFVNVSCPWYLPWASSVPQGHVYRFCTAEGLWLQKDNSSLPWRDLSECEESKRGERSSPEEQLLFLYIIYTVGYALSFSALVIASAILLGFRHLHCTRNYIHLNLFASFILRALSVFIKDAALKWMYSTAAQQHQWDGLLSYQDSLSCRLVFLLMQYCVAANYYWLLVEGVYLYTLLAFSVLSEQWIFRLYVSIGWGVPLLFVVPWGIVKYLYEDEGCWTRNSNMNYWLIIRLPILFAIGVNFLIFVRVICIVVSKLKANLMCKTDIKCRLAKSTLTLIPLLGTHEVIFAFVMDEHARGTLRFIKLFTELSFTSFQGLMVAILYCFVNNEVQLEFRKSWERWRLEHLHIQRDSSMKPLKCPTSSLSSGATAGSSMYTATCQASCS
Source text: The day after seeding, the medium is replaced with plasma free medium.

Substance	Time to onset of aggregation [1]	Potency compared to the acid form Val^8-GLP-1(7–37)OH (in words) [2]
Val^8-GLP-1(7–37)NH2 (HXEGTFTSDVSSYLEXQAAKXFIXWLVKGRX; C-terminal amide) [GLP-1(7–37)OH wherein Ala at position 8 has been substituted with Val and Gly at position 37 has been amidated]	approximately 23 hours	–
Val^8-GLP-1(7–36)NH2	–	slightly less potent than the acid form
